According to patent US20130184211A1 (NEW YORK UNIVERSITY, published 2013):

Target: T1, complex of V5-tagged FGFR4 and FLAG-tagged membrane-spanning murine Klotho isolated from transfected … (murine, UniProt O35082 35-1014)
T1 construct: Isolated from cell lysate on anti-V5 agarose beads; also called FGFR4-Klotho complex; binary FGFR-Klotho complex; not shown: FGFR4, V5-tagged, expressed from a vector in HEK293-Klotho cells
Test: co-immunoprecipitation competition; competitor FGF23^28-251 (1 nM)
Text: Co-immunoprecipitation may also be used to determine that an agent specifically binds the binary FGFR-Klotho complex. One aspect of the present invention utilizes co-immunoprecipitation studies. Subconfluent cultures of a HEK293 cell line ectopically expressing the FLAG-tagged membrane-spanning form of murine Klotho were transfected with expression vectors for V5-tagged FGFR1c, FGFR3c, or FGFR4. Two days later, the cells were lysed, and FGFR-Klotho complexes were isolated from cell lysate using anti-V5 agarose beads. The beads were then incubated with either FGF23¹⁸⁰⁻²⁵¹ or FGF23²⁸⁻²⁵¹ alone, or with mixtures of FGF23²⁸⁻²⁵¹ with either increasing FGF23¹⁸⁰⁻²⁵¹ or increasing FGF23¹⁸⁰⁻²⁰⁵. Bead-bound proteins were resolved on SDS-polyacrylamide gels, transferred to nitrocellulose membranes, and labeled using antibodies to Klotho, FGF23, and V5 epitope tag.

B1: N-terminally hexahistidine-tagged 72-amino acid C-terminal tail of human FGF23 (S180 to I251), FGF23^180-251 (peptide)
peptide: SAEDDSERDPLNVLKPRARMTPAPASCSQELPSAEDNSPMASDPLGVVRGGRVNTHAGGTGPEGCRPFAKFI
notes: Expressed in E. coli; also called FGF23 C-terminal tail peptide; C-terminal tail of FGF23; not shown: N-terminal hexahistidine tag (six His)
In the case of B1, the “molar excess over FGF23^28-251 that completely blocked its binding” value is reported as 76 fold molar excess.
